Here are results for 30 sequences from the nanobody polyreactivity screen of Harvey et al. (2022).

The data set is described as follows: yeast display, Sf9 membrane polyspecificity reagent, FACS + sequencing; frameworks hold sequencing errors. Put shortly:
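Polyreactivity labels are assigned by the sorting gate from which each nanobody was recovered. The gates were low and high (top ~1%), set on anti-HA fluorescence for expression and streptavidin fluorescence for reagent binding. Before sorting, galactose-induced (36–48 hours) yeast display cells were stained for 1 hour at 4 °C with 10% biotinylated, detergent-solubilized Sf9 membrane reagent.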
Consider “QVQLVESGGGLVQAGGSLRLSCAASGGTFRSYAMGWFRQAPGKERELVASISSGGTTNYADSVKGRFTISRDNAKNTVYLQLTSLKPEDTAVYYCAKSYPGRAPGYYSWGQGTQVTVSS”, for which the “polyreactivity (PSR sort gate)” value is given as “low polyreactivity”.
Consider “QVQLVESGGGLVQAGGSLRLSCAASGGTFRVYAMGWYRQAPGKERELVASISWTVGGTYADSVKGRFTISRDNAKNTVYLQMNSLKPEDTAVYYCAAGGEWVNPYFPSSLDYWGQGTQVTVSS”, for which the “polyreactivity (PSR sort gate)” value was “low polyreactivity”.
In the case of “QVQLVESGGGLVQAGGSLRLSCAASGGTFRVYVMGWYRQAPGKERELVADISRGGGSTYYADSVKGRFTISRDNAKNTVYLQMNSLKPEDTAVYYCAARVCRYPWRASEYDYWGQGTQVTVSS”, the “polyreactivity (PSR sort gate)” value is on record as “high polyreactivity”.
In the case of “QVQLVESGGGLVQAGGSLRLSCAASGGTFRYNAKGWYRQAPGKERELFATISIRGASTYYADSVKGRITISRDNAKHSVYLQLNSLKPEDTAVFYCAAERRNSYVLLIKYNYWGQGTQVTVSS”, the “polyreactivity (PSR sort gate)” value is given as “low polyreactivity”.
In the case of “QVQLVESGGGLVQAGGSLRLSCAASGGTFRYNAMGWYRQAPGKERELVAAISSSGGSTYYADSVKGRFTISRDNAKNTVYLQMNSLKPEDTAVYYCAAKRRRYVELDYWGQVTQVTVSS”, the “polyreactivity (PSR sort gate)” value is recorded as “high polyreactivity”.
As for “QVQLVESGGGLVQAGGSLRLSCAASGGTFRYYAMGRYRPAPGKERDLVARIRYNGGSTYYADSVKGRFTISRDNAKNTVSLQMKSLKPEDTAVDYCAAVGRYPRTWMNYWGQGNQVTVSS”, the entry is “high polyreactivity”; as for “QVQLVESGGGLVQAGGSLRLSCAASGGTFRYYTMGWYRQAPGKERELVASISGGGRTYYADSVKGRFTISRDNAKITVYLQMNSLKPEDTAVYYCNARNRVYYTLSGYGYWGQGTQVTVSS”, “high polyreactivity”; as for “QVQLVESGGGLVQAGGSLRLSCAASGGTFSFNAMGWYRQAPGKERELVAAITQTGDGTYYADSVKGRFTISRDNAKNTVYLQMNSLKPEDTAVYYCNTDSIPYVPWFRFDYWGQGTQVTVSS”, “low polyreactivity”.
Regarding “QVQLVESGGGLVQAGGSLRLSCAASGGTFSGYVMGWYRQAPGKERELVAAISRRGTTTYYADSVKGRFTISRDNAKNTVYLQMISLKPEDTAVYYCAAVTRWKRTLSSFYYWGQGTQVTVSS”, the “polyreactivity (PSR sort gate)” value is “high polyreactivity”.
For “QVQLVESGGGLVQAGGSLRLSCAASGGTFSRYAMGWYRQAPGKERELVAAITRSGASTFYADSVKGRFTISRDNAKNTVYLQMNSLKPEDTAVYYCAADTYVYNEYDYWGQGTQVTVSS”, the “polyreactivity (PSR sort gate)” value is given as “high polyreactivity”.
On to “QVQLVESGGGLVQAGGSLRLSCAASGGTFSSNAMGWYRQAPGKERELVAAISGSGDRTYYADSVKGRFTISRDNAKNTVYLQMNSLKPEDTAVYYCAKTLHKGSRGRYNYWGQGTQVTVSS”, for which the “polyreactivity (PSR sort gate)” value is on record as “high polyreactivity”.
For “QVQLVESGGGLVQAGGSLRLSCAASGGTFSTYAMGWYRQAPGKERELVAAISYSTGNTYYADSVKGRFTISRDNAKNTVYFQMNSLKPEDTAVYYCATLGGSQRGLGSFTRKYDYWGQGTQVTVSS”, the “polyreactivity (PSR sort gate)” value is on record as “low polyreactivity”.
As for “QVQLVESGGGLVQAGGSLRLSCAASGGTFSYYAMGWYRQAPGKERELVAAINWSGASTYYADSVKGRFTISRDNAKNTVYLQMNSLKPEDTAVYYCNVYLGILYKYDYWGQGTQVTVSS”, the entry is “low polyreactivity”; as for “QVQLVESGGGLVQAGGSLRLSCAASGGTFSYYAMGWYRQAPGKERELVAAITYSGDRTYYADSVKGRFTISRDNAKNTVFLQMNSLKPEDTAVYYCNAVRGSWYGYYYWGQGTQVTVSS”, “high polyreactivity”; as for “QVQLVESGGGLVQAGGSLRLSCAASGGTFTAYAMGWYRQAPGKERELVAAISASGDSTYYADSVKGRFTISRDNAKNTVYLQMNSLKPEDTAVYYCNADWYRTGRRGSDYWGQGTQVTVSS”, “low polyreactivity”.
In the case of “QVQLVESGGGLVQAGGSLRLSCAASGGTFTFYAMGWYRQATGKEMELVATINWSGGSTYYADSVKGRFTISRDNAKNTVYLQMNSLKPEDTAVYYCNAAWPYKSVEYWGQGTQVTVSS”, the “polyreactivity (PSR sort gate)” value is reported as “low polyreactivity”.
Regarding “QVQLVESGGGLVQAGGSLRLSCAASGGTFTGYAMGWYRQAPGKERELVAAISYSGTRTYYADSVKGRFTISRDNAKNTVYLQMNSLKPEDTAVYYCNALYAIWHDYWGQGTQVTVSS”, the “polyreactivity (PSR sort gate)” value is “high polyreactivity”.
As to “QVQLVESGGGLVQAGGSLRLSCAASGGTFVGYTMGWYRQAPGKERELVAGIRTRSGSTSYADSVKGRFTISRDNAKNTVYLQMNSLKPEDTAVYYCAARPYGRYPYPEYYYWGQGTQVTVSS”, the “polyreactivity (PSR sort gate)” value is reported as “high polyreactivity”.
The entry for “QVQLVESGGGLVQAGGSLRLSCAASGGTFVYNAMGWYRQAPGKERELVAAIRVRGDTTYYADSVKGRFTISRDNAKYTVYLQMNSLKPEDTAVYYCAAYPDYSYYYWGQGTQVTVSS” is “high polyreactivity”; for “QVQLVESGGGLVQAGGSLRLSCAASGGTFWIYAMGWYRQAPGKERELVAGITTSGATTYYADSVKGRFTISRDNAKNTVYLQMNSLKPEDTAVYYCAAVIRPRYYQVRPRYDYWGQGTQVTVSS” it is “low polyreactivity”.
As to “QVQLVESGGGLVQAGGSLRLSCAASGGTFYAYAMGSYRQAPGKERELVAAITNSGGSTYYADSVKGRFTISRDNAKNNVYLQMHSLKPEDTAVYYCARRRSYRDNYWGQGTQVTVSS”, the “polyreactivity (PSR sort gate)” value is recorded as “high polyreactivity”.
On to “QVQLVESGGGLVQAGGSLRLSCAASGGTFYAYAMGWYRQAPGKERELVAAITRSGGRPYYADSVKGRVTISRDNAKNTVYLQMNSLKPEDTEVYYCAADPHHYSGLDYWGQGTHVTVSS”, for which the “polyreactivity (PSR sort gate)” value is reported as “low polyreactivity”.
For the sequence “QVQLVESGGGLVQAGGSLRLSCAASGGTFYFNAMGWYRQAPGKERELVATIRYSGGSTYYADSVKGRFTISRDNAKNTVYLQMNSLKPEDTAVYYCNARPRYLSPYRPFKYNYWGQGTQVTVSS”, the “polyreactivity (PSR sort gate)” value is “high polyreactivity”.
Consider “QVQLVESGGGLVQAGGSLRLSCAASGGTFYFYAMGWDRQAPGKERELVAAISRSVGSTYYADSVKGRFTISRDNAKNTVYLQMNSLKPEDTAVYYCAARYTGGGIRYDYWGQGTQVTLSS”, for which the “polyreactivity (PSR sort gate)” value is recorded as “high polyreactivity”.
“QVQLVESGGGLVQAGGSLRLSCAASGGTFYGYAAMGWYRQAPGKERELVAAISRSGGRTYYADSVKGRFTISRDNAKNTVYLQMNSLKPEDTAVYDCNVGFYPYSFLTFQGGDYWGQGTQVTVSS”: the “polyreactivity (PSR sort gate)” value was “high polyreactivity”.
Consider “QVQLVESGGGLVQAGGSLRLSCAASGGTFYGYAMGWYRQAPGKERELVAAINYRGGRTYYADSVKGRFTISRDNAKNTVYLQMNSLKPEDTAVYYCAATSYRLDGYDYWGQGTQVTVSS”, for which the “polyreactivity (PSR sort gate)” value is “high polyreactivity”.
As to “QVQLVESGGGLVQAGGSLRLSCAASGGTFYGYAMGWYRQAPGKERELVAAITSGDSTNYADSVKGRFTISRDNAKNTVYLQMNNLKPEDTAVYYCAAGDPTLLNESFDYWGQGTQVTVSS”, the “polyreactivity (PSR sort gate)” value was “low polyreactivity”.
With “QVQLVESGGGLVQAGGSLRLSCAASGGTFYHNVMGWYRQAPGKERELVAAIRYSGGRTYYADSVKGRFTLSRDNAKNTVYLQMNSLKPEDTAVYYCAVRSYYGPFGYWGQGTQVTVSS”, the “polyreactivity (PSR sort gate)” value was “high polyreactivity”.
Take “QVQLVESGGGLVQAGGSLRLSCAASGGTFYLNAMGWYRQAAGKERELVAGISWGGGRTYYADSVKGRFTISRDNAKNTVYLQMNSLKPEDTAVYYCAAGAWRGPYSGYYYWGQGTQVTVSS”: the “polyreactivity (PSR sort gate)” value was “low polyreactivity”.
Take “QVQLVESGGGLVQAGGSLRLSCAASGGTFYLNAMGWYRQAPGKERELVAGITWGGGRTYYADSVKGRFTISRDNAKNTVYLQMNSLKQEDTEVYYCAAGAWRGPYSGYYYWGQGTQVTVSS”: the “polyreactivity (PSR sort gate)” value was “low polyreactivity”.
